Source: patent US20200024322A1 (Eli Lilly, published 2020)
Positions count from the first letter of the chain named. Numbered stars: 1 amine (or outer) side, 2 acyl side, 3 side chain; on linkers, the order of the positions; unused ones are H or OH. Square brackets hold non-standard residues; d marks the D form. Side chains are listed from the residue outwards. Ends that are not written are not given here. * marks the point of attachment. C18 diacid = O=C(O)CCCCCCCCCCCCCCCCC(=O)*; γGlu = O=C(O)[C@H](CCC(=O)[*:2])N[*:1]; AEEA = NCCOCCOCC(=O)O; Aib = CC(C)(N)C(=O)O

B1: Example 248 (peptide)
peptide: YXEGTXTSDYSILLDXKAQXEFIXYLIEGGPSSGAPPPS
modifications: Aib2; αMeF(2F)6; Orn16; K17((2-[2-(2-Amino-ethoxy)-ethoxy]-acetyl)2-(γ-Glu)-CO-(CH2)16-CO2H); Aib20; D-Glu24; C-terminal NH2
B2: Example 235 (peptide)
peptide: B1 peptide with Y10X, L13X
modifications: Aib2; αMeF6; 4Pal10; αMeL13; Dab16; K17((2-[2-(2-Amino-ethoxy)-ethoxy]-acetyl)2-(γ-Glu)-CO-(CH2)16-CO2H); Aib20; D-Glu24; C-terminal NH2
B3: Example 247 (peptide)
peptide: B1 peptide with L13X
modifications: Aib2; αMeF(2F)6; Aib13; Orn16; K17((2-[2-(2-Amino-ethoxy)-ethoxy]-acetyl)2-(γ-Glu)-CO-(CH2)16-CO2H); Aib20; D-Glu24; C-terminal NH2
B4: Example 249 (peptide)
peptide: B1 peptide with L13X
modifications: Aib2; αMeF(2F)6; Nle13; Orn16; K17((2-[2-(2-Amino-ethoxy)-ethoxy]-acetyl)2-(γ-Glu)-CO-(CH2)16-CO2H); Aib20; D-Glu24; C-terminal NH2
B5: Example 237 (peptide)
peptide: B1 peptide with Y10A, L13X, Y25X
modifications: Aib2; αMeF(2F)6; αMeL13; Orn16; K17((2-[2-(2-Amino-ethoxy)-ethoxy]-acetyl)2-(γ-Glu)-CO-(CH2)16-CO2H); Aib20; D-Glu24; αMeY25; C-terminal NH2
B6: Example 246 (peptide)
peptide: B1 peptide with Y10A, L13X, E21A, Y25X
modifications: Aib2; αMeF(2F)6; αMeL13; Orn16; K17((2-[2-(2-Amino-ethoxy)-ethoxy]-acetyl)2-(γ-Glu)-CO-(CH2)16-CO2H); Aib20; D-Glu24; αMeY25; C-terminal NH2
B7: Example 268 (peptide)
peptide: Y[Aib]EGTFTSDYSILLDEK([AEEA-AEEA-γGlu-C18 diacid])AQ[Aib]AFIEYLIEGGPSSG-NH2
modifications: N-terminus assumed
SMILES: CC[C@H](C)[C@H](NC(=O)[C@H](CC(C)C)NC(=O)[C@H](Cc1ccc(O)cc1)NC(=O)[C@H](CCC(=O)O)NC(=O)[C@@H](NC(=O)[C@H](Cc1ccccc1)NC(=O)[C@H](C)NC(=O)C(C)(C)NC(=O)[C@H](CCC(N)=O)NC(=O)[C@H](C)NC(=O)[C@H](CCCCNC(=O)COCCOCCNC(=O)COCCOCCNC(=O)CC[C@H](NC(=O)CCCCCCCCCCCCCCCCC(=O)O)C(=O)O)NC(=O)[C@H](CCC(=O)O)NC(=O)[C@H](CC(=O)O)NC(=O)[C@H](CC(C)C)NC(=O)[C@H](CC(C)C)NC(=O)[C@@H](NC(=O)[C@H](CO)NC(=O)[C@H](Cc1ccc(O)cc1)NC(=O)[C@H](CC(=O)O)NC(=O)[C@H](CO)NC(=O)[C@@H](NC(=O)[C@H](Cc1ccccc1)NC(=O)[C@@H](NC(=O)CNC(=O)[C@H](CCC(=O)O)NC(=O)C(C)(C)NC(=O)[C@@H](N)Cc1ccc(O)cc1)[C@@H](C)O)[C@@H](C)O)[C@@H](C)CC)[C@@H](C)CC)C(=O)N[C@@H](CCC(=O)O)C(=O)NCC(=O)NCC(=O)N1CCC[C@H]1C(=O)N[C@@H](CO)C(=O)N[C@@H](CO)C(=O)NCC(N)=O
B8: Example 270 (peptide)
peptide: Y[Aib]EGTFTSDYSILLDKK([AEEA-AEEA-γGlu-C18 diacid])AQ[Aib]EFIEYLIEGGPSSG-NH2
modifications: N-terminus assumed
SMILES: CC[C@H](C)[C@H](NC(=O)[C@H](CC(C)C)NC(=O)[C@H](Cc1ccc(O)cc1)NC(=O)[C@H](CCC(=O)O)NC(=O)[C@@H](NC(=O)[C@H](Cc1ccccc1)NC(=O)[C@H](CCC(=O)O)NC(=O)C(C)(C)NC(=O)[C@H](CCC(N)=O)NC(=O)[C@H](C)NC(=O)[C@H](CCCCNC(=O)COCCOCCNC(=O)COCCOCCNC(=O)CC[C@H](NC(=O)CCCCCCCCCCCCCCCCC(=O)O)C(=O)O)NC(=O)[C@H](CCCCN)NC(=O)[C@H](CC(=O)O)NC(=O)[C@H](CC(C)C)NC(=O)[C@H](CC(C)C)NC(=O)[C@@H](NC(=O)[C@H](CO)NC(=O)[C@H](Cc1ccc(O)cc1)NC(=O)[C@H](CC(=O)O)NC(=O)[C@H](CO)NC(=O)[C@@H](NC(=O)[C@H](Cc1ccccc1)NC(=O)[C@@H](NC(=O)CNC(=O)[C@H](CCC(=O)O)NC(=O)C(C)(C)NC(=O)[C@@H](N)Cc1ccc(O)cc1)[C@@H](C)O)[C@@H](C)O)[C@@H](C)CC)[C@@H](C)CC)C(=O)N[C@@H](CCC(=O)O)C(=O)NCC(=O)NCC(=O)N1CCC[C@H]1C(=O)N[C@@H](CO)C(=O)N[C@@H](CO)C(=O)NCC(N)=O

What was measured:
[1] = target: T1, human GLP-1 receptor (human, UniProt P43220 24-463); assay: [125I]-GLP-1 competition SPA, hGLP-1R membranes
T1 construct: whole, on cells; also called hGLP-1R; hGLP1R
Description: The binding buffer contains 25 mM HEPES, pH 7.4, 2.5 mM CaCl₂, 1 mM MgCl₂, 0.1% (w/v) bacitracin, 0.003% (w/v) TWEEN®-20, and Roche Complete™ Protease Inhibitors without EDTA.
(§1) Data are analyzed using four-parameter (curve maximum, curve minimum, IC₅₀, Hill slope) nonlinear regression routines (Genedata Screener, version 12.0.4, Genedata AG, Basal, Switzerland). […] Values for Kᵢ are reported as the geometric mean, with error expressed as the standard error of the mean (SEM) and n is equal to the number of independent replicates (determined in assays performed on different days). Geometric Means are calculated as follows: […]

[2] = target: T2, human GIP receptor (human, UniProt P48546 22-466); assay: [125I]-GIP competition SPA, hGIPR membranes
T2 construct: whole, on cells; also called hGIPR; hGIP-R
T2 sequence (looked up): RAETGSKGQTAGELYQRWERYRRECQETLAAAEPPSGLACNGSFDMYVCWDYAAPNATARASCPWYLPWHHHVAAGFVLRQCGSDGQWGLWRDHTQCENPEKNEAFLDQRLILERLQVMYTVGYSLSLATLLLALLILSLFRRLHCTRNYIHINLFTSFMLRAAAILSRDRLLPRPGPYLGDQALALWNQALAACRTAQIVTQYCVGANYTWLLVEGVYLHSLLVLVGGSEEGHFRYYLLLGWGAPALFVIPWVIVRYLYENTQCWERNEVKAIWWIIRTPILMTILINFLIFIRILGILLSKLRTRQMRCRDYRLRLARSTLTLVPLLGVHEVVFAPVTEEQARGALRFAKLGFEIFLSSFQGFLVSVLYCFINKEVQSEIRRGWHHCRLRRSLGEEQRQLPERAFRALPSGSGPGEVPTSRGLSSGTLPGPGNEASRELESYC
Description: The binding buffer contains 25 mM HEPES, pH 7.4, 2.5 mM CaCl₂, 1 mM MgCl₂, 0.1% (w/v) bacitracin, 0.003% (w/v) TWEEN®-20, and Roche Complete™ Protease Inhibitors without EDTA. […] Plates are sealed and mixed on a plate shaker (setting 6) for 1 minute and read with a PerkinElmer Trilux MicroBeta® scintillation counter after 2.5 to 12 hours of incubation/settling time at room temperature.
as §1

Binder	Ki [1] [nM]	Ki [2] [nM]
B1	2.4	0.0397
B2	7.65	0.0581
B3	4.39	–
B4	2.35	0.0394
B5	1.04	0.131
B6	0.812	0.0509
B7	3.98	0.0814
B8	8.27	0.117
